Test [1] concerns the target T1, FcγRIIIa extracellular domain with C-terminal His tag (human, UniProt P08637 17-208).
T1 construct: extracellular domain; also called FcgRIIIa; 3a; not shown: His tag attached to the C terminus
As to the kind of experiment: SPR (Biacore); He/Con_3a divided by He/Con_2b (reference: binding to FcγRIIb). The protocol:
(§1) Analysis of interaction between objective antibody and the FcγR was carried out using Biacore T100 (GE Healthcare). HBS-EP+ (GE Healthcare) was used as the running buffer, and the measurement temperature was set to 25° C. Chips produced by immobilizing the antigen peptide by the amine coupling method to a Series S Sencor Chip CM5 (GE Healthcare), or alternatively, chips produced by allowing preliminarily biotinylated antigen peptides to interact with and immobilize onto a Series S Sensor Chip SA (certified) (GE Healthcare) were used. Antibodies of interest were captured onto an antigen peptide-immobilized chip, and allowed to interact to each FcγR diluted with running buffer. To regenerate and repeatedly use the chip, the antibodies captured on the chip were washed off by reacting 10 mM glycine-HCl, pH 1.5.
(§2) The FcγR-binding activity of each antibody was assessed primarily using as an indicator the FcγR-binding activity and dissociation constant for FcγR.
Background: Surface plasmon resonance follows binding to a sensor surface in real time, without labels.

For test [2], the target named is T1, FcγRIIIa extracellular domain with …. As to the kind of experiment: SPR (Biacore), relative binding. The protocol:
as §1, §2

Test [3] deals with T2, FcγRIIb extracellular domain with C-terminal His tag (human, UniProt P31994 43-217).
T2 construct: extracellular domain; also called FcgRIIb; 2b; not shown: His tag attached to the C terminus
T2 sequence (looked up): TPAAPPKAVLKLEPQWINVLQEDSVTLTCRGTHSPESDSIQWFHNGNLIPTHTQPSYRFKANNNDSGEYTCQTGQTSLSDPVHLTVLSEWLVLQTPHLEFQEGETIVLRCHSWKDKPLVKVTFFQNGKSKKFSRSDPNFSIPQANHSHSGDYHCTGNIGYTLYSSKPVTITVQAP
As to the kind of experiment: SPR (Biacore), relative binding. The protocol:
as §1, §2

This note sets out measurements from patent US20180155451A1 (published 2018).

T1 sequence (P08637 17-208): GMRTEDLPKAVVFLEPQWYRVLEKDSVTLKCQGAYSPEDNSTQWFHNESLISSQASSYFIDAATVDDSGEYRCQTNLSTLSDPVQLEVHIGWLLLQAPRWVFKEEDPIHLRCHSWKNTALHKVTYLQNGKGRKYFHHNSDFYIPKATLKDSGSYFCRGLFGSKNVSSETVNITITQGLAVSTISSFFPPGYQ

B1: GpH7-A5/GpH7-B3 variant N325_14T/GpL16-k0 (antibody, human IgG1, kappa)
heavy 1: not shown
heavy 2: not shown
light: DIVMTQSPLSLPVTPGEPASISCQASESLVHSNRNTYLHWYLQKPGQSPQLLIYKVSNRFSGVPDRFSGSGSGTDFTLKISRVEAEDVGVYYCSQNTHVPPTFGQGTKVEIERTVAAPSVFIFPPSDEQLKSGTASVVCLLNNFYPREAKVQWKVDNALQSGNSQESVTEQDSKDSTYSLSSTLTLSKADYEKHKVYACEVTHQGLSSPVTKSFNRGEC
notes: Heterodimerized IgG1; alteration in one H chain only; also called He Ab
On to B1, for which the “He_3a/2b (IIIa/IIb)” value in test [1] was 0.43 ratio. Moreover, in test [2], the “He/Con_3a (IIIa binding)” value was 39.4 % of GpH7-A5/GpH7-B3/GpL16-k0 (=100). Further, in test [3], the “He/Con_2b (IIb binding)” value is 91.6 % of GpH7-A5/GpH7-B3/GpL16-k0 (=100).

B2: GpH7-A5/GpH7-B3 variant S324_05P/GpL16-k0 (antibody, human IgG1, kappa)
heavy 1: not shown
heavy 2: not shown
light: DIVMTQSPLSLPVTPGEPASISCQASESLVHSNRNTYLHWYLQKPGQSPQLLIYKVSNRFSGVPDRFSGSGSGTDFTLKISRVEAEDVGVYYCSQNTHVPPTFGQGTKVEIERTVAAPSVFIFPPSDEQLKSGTASVVCLLNNFYPREAKVQWKVDNALQSGNSQESVTEQDSKDSTYSLSSTLTLSKADYEKHKVYACEVTHQGLSSPVTKSFNRGEC
notes: as for B1
In the case of B2, the “He_3a/2b (IIIa/IIb)” value in test [1] amounted to 0.69 ratio. In addition, the “He/Con_3a (IIIa binding)” value in test [2] is 65.5 % of GpH7-A5/GpH7-B3/GpL16-k0 (=100). Further, the “He/Con_2b (IIb binding)” value in test [3] was 94.7 % of GpH7-A5/GpH7-B3/GpL16-k0 (=100).

B3: GpH7-A5/GpH7-B3 variant N325_19Q/GpL16-k0 (antibody, human IgG1, kappa)
heavy 1: not shown
heavy 2: not shown
light: DIVMTQSPLSLPVTPGEPASISCQASESLVHSNRNTYLHWYLQKPGQSPQLLIYKVSNRFSGVPDRFSGSGSGTDFTLKISRVEAEDVGVYYCSQNTHVPPTFGQGTKVEIERTVAAPSVFIFPPSDEQLKSGTASVVCLLNNFYPREAKVQWKVDNALQSGNSQESVTEQDSKDSTYSLSSTLTLSKADYEKHKVYACEVTHQGLSSPVTKSFNRGEC
notes: as for B1
Take B3: the “He_3a/2b (IIIa/IIb)” value in test [1] turned out to be 0.46 ratio. Also, in test [2], the “He/Con_3a (IIIa binding)” value is 31.6 % of GpH7-A5/GpH7-B3/GpL16-k0 (=100). For the same molecule, the “He/Con_2b (IIb binding)” value in test [3] was 69.1 % of GpH7-A5/GpH7-B3/GpL16-k0 (=100).

B4: GpH7-A5/GpH7-B3 variant P271_09D/GpL16-k0 (antibody, human IgG1, kappa)
heavy 1: not shown
heavy 2: not shown
light: DIVMTQSPLSLPVTPGEPASISCQASESLVHSNRNTYLHWYLQKPGQSPQLLIYKVSNRFSGVPDRFSGSGSGTDFTLKISRVEAEDVGVYYCSQNTHVPPTFGQGTKVEIERTVAAPSVFIFPPSDEQLKSGTASVVCLLNNFYPREAKVQWKVDNALQSGNSQESVTEQDSKDSTYSLSSTLTLSKADYEKHKVYACEVTHQGLSSPVTKSFNRGEC
notes: as for B1
For the molecule B4, in test [1], the “He_3a/2b (IIIa/IIb)” value was determined as 0.77 ratio. In addition, the “He/Con_3a (IIIa binding)” value in test [2] was 93.1 % of GpH7-A5/GpH7-B3/GpL16-k0 (=100). Moreover, the “He/Con_2b (IIb binding)” value in test [3] was 120 % of GpH7-A5/GpH7-B3/GpL16-k0 (=100).

B5: GpH7-A5/GpH7-B3 variant Y296_14T/GpL16-k0 (antibody, human IgG1, kappa)
heavy 1: not shown
heavy 2: not shown
light: DIVMTQSPLSLPVTPGEPASISCQASESLVHSNRNTYLHWYLQKPGQSPQLLIYKVSNRFSGVPDRFSGSGSGTDFTLKISRVEAEDVGVYYCSQNTHVPPTFGQGTKVEIERTVAAPSVFIFPPSDEQLKSGTASVVCLLNNFYPREAKVQWKVDNALQSGNSQESVTEQDSKDSTYSLSSTLTLSKADYEKHKVYACEVTHQGLSSPVTKSFNRGEC
notes: as for B1
Take B5: the “He_3a/2b (IIIa/IIb)” value in test [1] came out at 0.73 ratio. For the same molecule, the “He/Con_3a (IIIa binding)” value in test [2] was 64.5 % of GpH7-A5/GpH7-B3/GpL16-k0 (=100). The “He/Con_2b (IIb binding)” value in test [3] is 88.2 % of GpH7-A5/GpH7-B3/GpL16-k0 (=100).

B6: GpH7-A5/GpH7-B3 variant Y300_10E/GpL16-k0 (antibody, human IgG1, kappa)
heavy 1: not shown
heavy 2: not shown
light: DIVMTQSPLSLPVTPGEPASISCQASESLVHSNRNTYLHWYLQKPGQSPQLLIYKVSNRFSGVPDRFSGSGSGTDFTLKISRVEAEDVGVYYCSQNTHVPPTFGQGTKVEIERTVAAPSVFIFPPSDEQLKSGTASVVCLLNNFYPREAKVQWKVDNALQSGNSQESVTEQDSKDSTYSLSSTLTLSKADYEKHKVYACEVTHQGLSSPVTKSFNRGEC
notes: as for B1
Turning to B6, the “He_3a/2b (IIIa/IIb)” value in test [1] was 0.78 ratio. The “He/Con_3a (IIIa binding)” value in test [2] is 104 % of GpH7-A5/GpH7-B3/GpL16-k0 (=100). In test [3], the “He/Con_2b (IIb binding)” value was 134 % of GpH7-A5/GpH7-B3/GpL16-k0 (=100).

B7: GpH7-A5/GpH7-B3 variant P271_14T/GpL16-k0 (antibody, human IgG1, kappa)
heavy 1: not shown
heavy 2: not shown
light: DIVMTQSPLSLPVTPGEPASISCQASESLVHSNRNTYLHWYLQKPGQSPQLLIYKVSNRFSGVPDRFSGSGSGTDFTLKISRVEAEDVGVYYCSQNTHVPPTFGQGTKVEIERTVAAPSVFIFPPSDEQLKSGTASVVCLLNNFYPREAKVQWKVDNALQSGNSQESVTEQDSKDSTYSLSSTLTLSKADYEKHKVYACEVTHQGLSSPVTKSFNRGEC
notes: as for B1
For the molecule B7, in test [1], the “He_3a/2b (IIIa/IIb)” value was found to be 0.59 ratio. Moreover, in test [2], the “He/Con_3a (IIIa binding)” value was 56.4 % of GpH7-A5/GpH7-B3/GpL16-k0 (=100). The “He/Con_2b (IIb binding)” value in test [3] was 95.4 % of GpH7-A5/GpH7-B3/GpL16-k0 (=100).

B8: GpH7-A5/GpH7-B3 variant S298_08L/GpL16-k0 (antibody, human IgG1, kappa)
heavy 1: not shown
heavy 2: not shown
light: DIVMTQSPLSLPVTPGEPASISCQASESLVHSNRNTYLHWYLQKPGQSPQLLIYKVSNRFSGVPDRFSGSGSGTDFTLKISRVEAEDVGVYYCSQNTHVPPTFGQGTKVEIERTVAAPSVFIFPPSDEQLKSGTASVVCLLNNFYPREAKVQWKVDNALQSGNSQESVTEQDSKDSTYSLSSTLTLSKADYEKHKVYACEVTHQGLSSPVTKSFNRGEC
notes: as for B1
For the molecule B8, in test [1], the “He_3a/2b (IIIa/IIb)” value is 0.68 ratio. In test [2], the “He/Con_3a (IIIa binding)” value is 73.5 % of GpH7-A5/GpH7-B3/GpL16-k0 (=100). For the same molecule, the “He/Con_2b (IIb binding)” value in test [3] is 108 % of GpH7-A5/GpH7-B3/GpL16-k0 (=100).
